Source: patent publication US20180092966A1 (CSL, published 2018)

B1: Factor VIII SingleChain N2129C mutant (other)
chain: ATRRYYLGAVELSWDYMQSDLGELPVDARFPPRVPKSFPFNTSVVYKKTLFVEFTDHLFNIAKPRPPWMGLLGPTIQAEVYDTVVITLKNMASHPVSLHAVGVSYWKASEGAEYDDQTSQREKEDDKVFPGGSHTYVWQVLKENGPMASDPLCLTYSYLSHVDLVKDLNSGLIGALLVCREGSLAKEKTQTLHKFILLFAVFDEGKSWHSETKNSLMQDRDAASARAWPKMHTVNGYVNRSLPGLIGCHRKSVYWHVIGMGTTPEVHSIFLEGHTFLVRNHRQASLEISPITFLTAQTLLMDLGQFLLFCHISSHQHDGMEAYVKVDSCPEEPQLRMKNNEEAEDYDDDLTDSEMDVVRFDDDNSPSFIQIRSVAKKHPKTWVHYIAAEEEDWDYAPLVLAPDDRSYKSQYLNNGPQRIGRKYKKVRFMAYTDETFKTREAIQHESGILGPLLYGEVGDTLLIIFKNQASRPYNIYPHGITDVRPLYSRRLPKGVKHLKDFPILPGEIFKYKWTVTVEDGPTKSDPRCLTRYYSSFVNMERDLASGLIGPLLICYKESVDQRGNQIMSDKRNVILFSVFDENRSWYLTENIQRFLPNPAGVQLEDPEFQASNIMHSINGYVFDSLQLSVCLHEVAYWYILSIGAQTDFLSVFFSGYTFKHKMVYEDTLTLFPFSGETVFMSMENPGLWILGCHNSDFRNRGMTALLKVSSCDKNTGDYYEDSYEDISAYLLSKNNAIEPRSFSQNSRHRSTRQKQFNATTIPENTTLQSDQEEIDYDDTISVEMKKEDFDIYDEDENQSPRSFQKKTRHYFIAAVERLWDYGMSSSPHVLRNRAQSGSVPQFKKVVFQEFTDGSFTQPLYRGELNEHLGLLGPYIRAEVEDNIMVTFRNQASRPYSFYSSLISYEEDQRQGAEPRKNFVKPNETKTYFWKVQHHMAPTKDEFDCKAWAYFSDVDLEKDVHSGLIGPLLVCHTNTLNPAHGRQVTVQEFALFFTIFDETKSWYFTENMERNCRAPCNIQMEDPTFKENYRFHAINGYIMDTLPGLVMAQDQRIRWYLLSMGSNENIHSIHFSGHVFTVRKKEEYKMALYNLYPGVFETVEMLPSKAGIWRVECLIGEHLHAGMSTLFLVYSNKCQTPLGMASGHIRDFQITASGQYGQWAPKLARLHYSGSINAWSTKEPFSWIKVDLLAPMIIHGIKTQGARQKFSSLYISQFIIMYSLDGKKWQTYRGNSTGTLMVFFGCVDSSGIKHNIFNPPIIARYIRLHPTHYSIRSTLRMELMGCDLNSCSMPLGMESKAISDAQITASSYFTNMFATWSPSKARLHLQGRSNAWRPQVNNPKEWLQVDFQKTMKVTGVTTQGVKSLLTSMYVKEFLISSSQDGHQWTLFFQNGKVKVFQGNQDSFTPVVNSLDPPLLTRYLRIHPQSWVHQIALRMEVLGCEAQDLY
notes: Single-chain FVIII with partial B-domain deletion; also called FVIII-SC N2129C; Cys residue at FVIII aa position 2129

Key:
[1] = target: VWF-FP (albumin-fused von Willebrand Factor) (human); assay: covalent-FVIII ELISA over FVIII antigen ELISA
[2] = target: VWF-FP (albumin-fused von Willebrand Factor) (human); assay: covalent-FVIII ELISA over FVIII activity assay
[3] = target: T1, VWF-FP H817C mutant (albumin-fused von Willebrand Factor) (human); assay: covalent-FVIII ELISA over FVIII antigen ELISA
T1 construct: Stably expressed in CHO cells with furin co-transfected; also called VWF-FP mutant H817C; Cys residue at VWF aa position 817; not shown: linker between VWF and albumin, made in analogy to WO 2009/156137

[4] = target: T1, VWF-FP H817C mutant (albumin-fused von …); assay: covalent-FVIII ELISA over FVIII activity assay
[5] = target: T1, VWF-FP H817C mutant (albumin-fused von …); assay: ELISA of co-expression supernatant: anti-VWF capture, 350 mM CaCl2 wash, anti-FVIII detection
Method: Cell culture supernatant samples (10 ml) from transient transfections were concentrated with Amicon Ultracell-30K (Millipore UFC903024; 3000 g centrifugation). FVIII covalently attached to VWF-FP in culture supernatant (concentrates) was determined by a standard ELISA. Briefly, microplates were incubated with 100 μL per well of the capture antibody (rabbit anti human VWF-IgG, Dako A0082 [Dako, Hamburg, Germany], diluted 1:2000 in buffer A [Sigma C3041, Sigma-Aldrich, Munich, Germany]) overnight at ambient temperature. After washing plates three times with buffer B (Sigma T9039), each well was incubated with 200 μL buffer C (Sigma T6789) for 1.5 hours at ambient temperature (blocking). After another three wash steps with buffer B, serial dilutions of the test sample in buffer B as well as serial dilutions of a control preparation of covalently linked FVIII-VWF-FP, (2.0-0.03 arbitrary U/ml in buffer B (we call these “arbitrary units” as they may not correspond to the standard FVIII units as determined using Standard Human Plasma); volumes per well: 100 μL) were incubated for 1.5 hours at ambient temperature. After three wash steps with buffer B, 200 μL of 350 mM CaCl₂ were added to each well and incubated for 1 hour at ambient temperature. CaCl₂ was removed (without washing) and additional 200 μl were added to each well and incubated further for 1 hour. After three wash steps with buffer B 100 μL of a 1:2 dilution in buffer B of the detection antibody (Detecting Antibody for FVIII:C, peroxidase labelled, Cedarlane CL20035K-D) were added to each well and incubated for 1 hour at ambient temperature. After three wash steps with buffer B, 100 μL of substrate solution (OUVF, Siemens Healthcare Diagnostics) were added per well and incubated for 15 minutes at ambient temperature in the dark. Addition of 100 μL undiluted stop dilution (OSFA, Siemens Healthcare Diagnostics) prepared the samples for reading in a suitable microplate reader at 450 nm wavelength. Concentrations of the test samples were then calculated using the standard curve with the control preparation.

T1 sequence (chain, as listed by the source H817C H817C): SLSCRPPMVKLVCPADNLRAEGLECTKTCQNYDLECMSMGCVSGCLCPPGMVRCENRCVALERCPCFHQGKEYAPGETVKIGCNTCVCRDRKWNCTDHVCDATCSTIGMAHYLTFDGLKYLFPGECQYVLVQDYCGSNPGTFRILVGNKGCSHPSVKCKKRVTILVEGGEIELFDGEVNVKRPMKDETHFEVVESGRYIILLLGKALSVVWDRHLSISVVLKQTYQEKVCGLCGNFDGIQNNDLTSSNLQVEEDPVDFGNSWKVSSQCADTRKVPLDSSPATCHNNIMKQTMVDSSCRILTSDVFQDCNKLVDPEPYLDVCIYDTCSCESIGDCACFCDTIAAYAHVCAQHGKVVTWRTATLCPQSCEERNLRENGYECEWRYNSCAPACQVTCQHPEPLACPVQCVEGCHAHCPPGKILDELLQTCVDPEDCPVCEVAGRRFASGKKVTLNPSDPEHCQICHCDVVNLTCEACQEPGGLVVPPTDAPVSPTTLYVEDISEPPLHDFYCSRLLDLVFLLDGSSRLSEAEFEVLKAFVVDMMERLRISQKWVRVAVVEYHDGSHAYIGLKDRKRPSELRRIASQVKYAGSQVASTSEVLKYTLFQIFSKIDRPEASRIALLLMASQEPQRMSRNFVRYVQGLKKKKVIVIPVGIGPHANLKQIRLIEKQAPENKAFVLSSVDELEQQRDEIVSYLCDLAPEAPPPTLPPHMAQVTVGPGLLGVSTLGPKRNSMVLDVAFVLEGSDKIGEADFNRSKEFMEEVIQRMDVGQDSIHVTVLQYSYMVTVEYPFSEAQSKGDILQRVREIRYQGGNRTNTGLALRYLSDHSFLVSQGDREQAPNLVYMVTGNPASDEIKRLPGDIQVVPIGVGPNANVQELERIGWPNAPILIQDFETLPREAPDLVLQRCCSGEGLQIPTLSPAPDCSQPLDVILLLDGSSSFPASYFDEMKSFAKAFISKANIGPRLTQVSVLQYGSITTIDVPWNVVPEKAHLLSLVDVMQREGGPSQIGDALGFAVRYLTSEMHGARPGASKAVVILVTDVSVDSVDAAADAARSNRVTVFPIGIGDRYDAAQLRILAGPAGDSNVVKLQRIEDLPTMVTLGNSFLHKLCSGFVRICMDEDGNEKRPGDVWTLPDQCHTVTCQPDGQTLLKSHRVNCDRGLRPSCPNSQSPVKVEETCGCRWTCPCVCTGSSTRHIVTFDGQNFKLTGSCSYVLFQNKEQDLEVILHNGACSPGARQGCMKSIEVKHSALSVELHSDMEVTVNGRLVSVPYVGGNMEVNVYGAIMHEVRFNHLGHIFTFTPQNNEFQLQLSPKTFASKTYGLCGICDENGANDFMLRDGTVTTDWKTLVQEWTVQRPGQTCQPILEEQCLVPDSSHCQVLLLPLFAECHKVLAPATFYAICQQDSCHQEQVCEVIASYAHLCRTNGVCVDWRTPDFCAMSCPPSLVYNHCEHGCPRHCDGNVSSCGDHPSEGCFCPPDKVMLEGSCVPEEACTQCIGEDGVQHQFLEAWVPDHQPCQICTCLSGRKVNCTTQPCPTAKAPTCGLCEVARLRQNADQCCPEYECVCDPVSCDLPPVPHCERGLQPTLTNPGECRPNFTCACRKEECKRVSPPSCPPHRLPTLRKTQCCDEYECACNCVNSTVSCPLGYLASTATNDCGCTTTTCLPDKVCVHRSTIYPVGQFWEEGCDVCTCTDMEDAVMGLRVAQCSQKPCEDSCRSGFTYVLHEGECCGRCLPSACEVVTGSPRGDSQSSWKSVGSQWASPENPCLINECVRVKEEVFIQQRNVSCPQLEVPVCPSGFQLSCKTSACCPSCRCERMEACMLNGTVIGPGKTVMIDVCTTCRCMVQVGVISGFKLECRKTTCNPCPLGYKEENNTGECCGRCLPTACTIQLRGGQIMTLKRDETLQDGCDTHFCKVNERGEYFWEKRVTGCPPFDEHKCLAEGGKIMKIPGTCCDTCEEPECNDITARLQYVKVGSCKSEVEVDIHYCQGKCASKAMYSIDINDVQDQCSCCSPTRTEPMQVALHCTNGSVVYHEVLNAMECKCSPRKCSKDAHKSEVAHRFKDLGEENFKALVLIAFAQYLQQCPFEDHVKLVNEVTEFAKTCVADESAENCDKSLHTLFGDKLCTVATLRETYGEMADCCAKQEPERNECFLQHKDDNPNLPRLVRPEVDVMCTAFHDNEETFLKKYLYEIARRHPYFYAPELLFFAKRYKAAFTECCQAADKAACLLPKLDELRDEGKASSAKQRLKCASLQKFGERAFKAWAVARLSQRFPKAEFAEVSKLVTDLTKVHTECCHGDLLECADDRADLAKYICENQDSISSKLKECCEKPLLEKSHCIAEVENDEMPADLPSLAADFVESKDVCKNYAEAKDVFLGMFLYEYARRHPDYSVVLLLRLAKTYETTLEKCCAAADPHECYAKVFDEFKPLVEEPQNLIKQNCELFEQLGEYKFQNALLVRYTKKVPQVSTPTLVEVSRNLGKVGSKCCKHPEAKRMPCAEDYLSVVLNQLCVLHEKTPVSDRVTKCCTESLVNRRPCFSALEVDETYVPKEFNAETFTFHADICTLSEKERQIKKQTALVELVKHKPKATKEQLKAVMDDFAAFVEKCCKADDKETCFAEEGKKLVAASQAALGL
Sequence of VWF-FP (albumin-fused von Willebrand Factor) (human) (chain, as listed by the source): as the sequence (chain, as listed by the source H817C H817C) above, with C54H counted along it

| ratio of covalent FVIII to total FVIII antigen [1] | ratio of covalent FVIII to total FVIII activity [2] | ratio covalent FVIII/Total FVIII antigen [3] | ratio covalent FVIII/Total FVIII activity [4] | covalent FVIII [5] | Molecule |
| --- | --- | --- | --- | --- | --- |
| 7.47 | 5.78 |  |  |  | FVIII-SingleChain with VWF-derived C3-C4-C5-C6-CK sequence added to its C-terminus and a thrombin cleavage site between them |
|  |  | 0.33 | 1.02 | 292 amU/ml | B1 |
